Data on 2 molecules can be found in article doi:10.64898/2025.12.10.693404.

As usually defined, the Kd is the concentration at which binding is half-saturated. A lower Kd goes with tighter binding.

Series [1] concerns the target T1, His6-SUMO-TDP-43 (UniProt Q13148 1-414). Briefly: fluorescence anisotropy. In general terms: Fluorescence polarisation rises when a labelled molecule tumbles more slowly, as on binding a larger partner.
Series [2] concerns the target T1, His6-SUMO-TDP-43. Briefly: fluorescence anisotropy. This is another data set of the same source.

T1 sequence (Q13148 whole entry): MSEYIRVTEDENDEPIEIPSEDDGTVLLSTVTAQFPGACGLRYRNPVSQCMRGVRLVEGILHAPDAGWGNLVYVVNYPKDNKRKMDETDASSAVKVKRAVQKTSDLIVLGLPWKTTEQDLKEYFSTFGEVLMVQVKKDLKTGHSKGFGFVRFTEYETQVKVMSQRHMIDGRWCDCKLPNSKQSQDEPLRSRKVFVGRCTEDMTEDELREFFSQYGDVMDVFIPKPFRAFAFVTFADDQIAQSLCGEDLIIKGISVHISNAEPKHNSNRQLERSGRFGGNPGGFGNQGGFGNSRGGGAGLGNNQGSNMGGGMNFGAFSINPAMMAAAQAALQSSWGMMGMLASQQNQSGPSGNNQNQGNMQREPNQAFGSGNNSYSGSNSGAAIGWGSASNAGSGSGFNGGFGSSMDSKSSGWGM

In the case of ACACACAC (ssDNA) [(AC)4], the binding result in series [1] is listed as “no binding”.

TGTGTGTG (ssDNA) [(TG)4] returned a Kd in series [2] of roughly 1800 nM.
